# Substitutions are numbered along the chain they refer to.
# B1: Antibody 3 (antibody, V domains shown)
# VH: QVQLQESGPGLVKPSQTLSLTCAISGDSVSSNNAVWNWIRQSPSRGLEWLGRTYYRSKWYNDYAESVKSRITVNPDTSKNQFSLHLKSVTPEDTAVFYCVRSGHITVFGVNVDAFDMWGQGTMVTVSS
# VL: DIQMTQSPSSLSASVGDRVTITCRTSQSLSSYLHWYQQKPGKAPKLLIYAASSLQSGVPSRFSGSGSGTDFTLTISSLQPEDFATYYCQQSRTFGQGTKVEIK
# B2: Antibody 12 (antibody, V domains shown)
# VH: B1 VH with E6Q, N32Y, K58G, V73I, H85Q, K87N, F97Y, V100A
# VL: B1 VL with L33T, L54R, Q55G
# B3: Antibody 13 (antibody, V domains shown)
# VH: B1 VH with E6Q, N32Y, K58G, V73I, H85Q, K87N, F97Y, V100A
# VL: B1 VL with L33D, L54R, Q55L
# B4: Antibody 14 (antibody, V domains shown)
# VH: B1 VH with E6Q, V73I, H85Q, K87N, F97Y, V100A, M123T
# VL: B1 VL with L33T, L54R, Q55L
# B5: Antibody 15 (antibody, V domains shown)
# VH: B1 VH with E6Q, V73I, H85Q, K87N, F97Y, V100A, M123T
# VL: B1 VL with L33T, L54R, Q55G
# B6: Antibody 11 (antibody, V domains shown)
# VH: B1 VH with E6Q, N32Y, K58G, V73I, H85Q, K87N, F97Y, V100A
# VL: B1 VL with L33T, L54R, Q55L
# B7: Antibody 10 (antibody, V domains shown)
# VH: QVQLQQSGPGLVKPSQTLSLTCAISGDSVSSNSATWNWIRQSPSRGLEWLGRTYYRSKWYNDYADFLKRRITINPDTSNNEVSLRLTSVTPDDTALYYCARGGHITVFGVNIDAFDVWGQGTMVTVSS
# VL: B1 VL with V19I, T22S, S30R, A51S, S53T, S77N, Q90L
# B8: Antibody 8 (antibody, V domains shown)
# VH: QVQLQQSGPGLVKPSQTLSLTCVISGDTVSSNRATWNWMRQSPLRGLEWLGRTYYRSKWYNDYAVSVKSRVVINPDTSKNQVSLQLNTVTPDDSGVYFCARGGHITVFGVNIDAFDIWGLGTKVTVSS
# VL: DIQMTQSPSSLSASVGDRVTISCRASQRLNSYLHWYQQTPGQAPKLLIYATSTLQSGVSPRFSGSGSGTDFTLTISSLQPEDVATYYCQLSRTFGHGTKVEIK
# B9: Antibody 5 (antibody, V domains shown)
# VH: QVQLQQSGPGLVKPSQTLSLTCAISGDRVSSNSAVWNWIRQSPSRGLEWLGRTYYRSKWYYDYAESVKSRIVIDPDTSKNQVSLQLNSVTPEDSAIYYCARGGHITVFGLNIDAYDIWGQGAMVTVSS
# VL: DIQMTQSPSSLSASVGDRVTISCRAQSLSSYLHWYQQKPGQPPKLLIYAATTLQSGVPSRFSGSGSGTDFTLTISTFQAEDVATYYCQQSRTFGQGTKVEIK
# B10: Antibody 6 (antibody, V domains shown)
# VH: B9 VH with V107E
# VL: B9 VL
# Target: T1, HA of A/Puerto Rico/8/34 (H1N1) (influenza A virus, UniProt P03452 18-565)
# T1 sequence (P03452 18-565 limits assumed): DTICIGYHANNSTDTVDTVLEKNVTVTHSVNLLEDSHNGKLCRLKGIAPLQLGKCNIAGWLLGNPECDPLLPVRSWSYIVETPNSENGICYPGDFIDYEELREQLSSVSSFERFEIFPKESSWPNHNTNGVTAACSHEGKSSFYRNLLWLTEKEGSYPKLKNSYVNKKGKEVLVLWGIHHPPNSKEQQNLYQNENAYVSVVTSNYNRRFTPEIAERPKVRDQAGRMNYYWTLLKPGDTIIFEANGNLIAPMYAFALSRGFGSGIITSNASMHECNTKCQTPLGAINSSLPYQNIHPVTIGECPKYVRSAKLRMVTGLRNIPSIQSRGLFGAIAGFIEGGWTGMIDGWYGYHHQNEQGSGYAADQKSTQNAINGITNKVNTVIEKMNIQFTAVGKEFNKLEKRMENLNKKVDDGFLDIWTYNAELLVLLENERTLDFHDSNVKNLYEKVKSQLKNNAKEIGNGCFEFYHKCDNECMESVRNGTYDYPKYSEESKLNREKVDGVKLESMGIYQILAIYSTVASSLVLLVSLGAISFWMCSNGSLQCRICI
# Assay: cell-based or functional assay
Binder,"Neutralization IC50, H1-PR34 [µg/mL]","Neutralization IC50, H1-PR34-OR [µg/mL]"
B1,2.17,1.39
B2,1.07,0.69
B3,1.3,0.88
B4,1.25,0.83
B5,1.47,0.9
B6,0.88,0.73

# Target: HA of ca A/Wuhan/359/95 (H3N2) (influenza A virus)
# Assay: cell-based or functional assay
Binder,"Neutralization IC50, H3-WH95 [µg/mL]","Neutralization IC50, H3-WH95-OR [µg/mL]"
B1,5.63,7.7
B2,2.09,2.34
B3,2.77,3.01
B4,2.77,3.09
B5,3.32,3.48
B6,2.45,2.26

# Target: T1, HA of A/Puerto Rico/8/34 (H1N1)
# Assay: cell-based or functional assay
# Remark: another data set of the same source
row,Binder,"Neutralization IC50, H1-PR34 [µg/mL]"
1,B1,1.07
2,B7,2.15
3,B8,3.02
4,B9,1.13
5,B10,4.37

# Target: HA of ca A/Wuhan/359/95 (H3N2) (influenza A virus)
# Assay: cell-based or functional assay
# Remark: another data set of the same source
row,Binder,"Neutralization IC50, H3-WH95 [µg/mL]"
1,B1,3.96
2,B7,8.7
3,B8,> 50
4,B9,3.72
5,B10,10.5

# Target: rHK68_D19Y H3 HA (influenza A virus)
# Assay: cell-based or functional assay
row,Binder,"Avg. Neut., microneutralization [µg/mL]"
1,B2,> 200

# Target: rHK68_I18R H3 HA (influenza A virus)
# Assay: cell-based or functional assay
row,Binder,"Avg. Neut., microneutralization [µg/mL]"
1,B2,> 200

# Target: rHK68_I45N H3 HA (influenza A virus)
# Assay: cell-based or functional assay
row,Binder,"Avg. Neut., microneutralization [µg/mL]"
1,B2,1.94

# Target: rHK68_I45T H3 HA (influenza A virus)
# Assay: cell-based or functional assay
row,Binder,"Avg. Neut., microneutralization [µg/mL]"
1,B2,3.38

# Target: rHK68_D19N H3 HA (influenza A virus)
# Assay: cell-based or functional assay
row,Binder,"Avg. Neut., microneutralization [µg/mL]"
1,B2,3.04

# Target: rHK68_K156Q H3 HA (influenza A virus)
# Assay: cell-based or functional assay
row,Binder,"Avg. Neut., microneutralization [µg/mL]"
1,B2,3.33

# Target: rHK68_A196T H3 HA (influenza A virus)
# Assay: cell-based or functional assay
row,Binder,"Avg. Neut., microneutralization [µg/mL]"
1,B2,4.06

# Target: rHK68_Q42R H3 HA (influenza A virus)
# Assay: cell-based or functional assay
row,Binder,"Avg. Neut., microneutralization [µg/mL]"
1,B2,11.1
